Assay results reported in paper PMC2774812 (Journal of molecular biology, 2009).
Where a chain is given by its changes, count along the chain named. Names and notes keep the numbering of the source.

B1: brome mosaic virus (BMV) capsid protein, wild type (natural protein)
chain: STSGTGKMTRAQRRAAARRNRWTARVQPVIVEPLAAGQGKAIKAIAGYSISKWEASSDAITAKATNAMSITLPHELSSEKNKELKVGRVLLWLGLLPSVAGRIKACVAEKQAQAEAAFQVALAVADSSKEVVAAMYTDAFRGATLGDLLNLQIYLYASEAVPAKAVVVHLEVEHVRPTFDDFFTPVYR
B2: brome mosaic virus (BMV) capsid protein D148A (natural protein)
chain: B1 chain with D147A
B3: brome mosaic virus (BMV) capsid protein R142A (natural protein)
chain: B1 chain with R141A

Target: the molecule itself
B1: binds. B2: binds. B3: binds.
